Experimental data as given in the nanobody polyreactivity screen of Harvey et al. (2022).

assay: yeast display, Sf9 membrane polyspecificity reagent, FACS + sequencing; frameworks hold sequencing errors
Procedure, shortened: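 Synthetic nanobody libraries on Saccharomyces cerevisiae BJ5465 were galactose-induced for 36–48 hours, stained 1 hour at 4 °C with 10% biotinylated, detergent-solubilized Sf9 membrane reagent and enriched on streptavidin microbeads. FACS then separated cells into low and high (top ~1%) gates by anti-HA (expression) and streptavidin (reagent binding) fluorescence. Genes were colony-PCR amplified, MiSeq 2 × 250 sequenced and CDR-length filtered. A clone's polyreactivity label is that of its gate of origin.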

| Sequence | polyreactivity (PSR sort gate) |
| --- | --- |
| QVQLVESGGGLVQAGGSLRLSCAASGRIFPWNTMGWYRQAPGKERELVAGINNGDRTYYADSVKGRFTISRDNENNTVYLQMNSLKPEDTAVYYCAARSPPSAYTYTTWEYDYWGQGTQVTVSS | low polyreactivity |
| QVQLVESGGGLVQAGGSLRLSCAASGRIFPWYTMGWYRQAPGKERELVAAITSGGNTDYADSVKGRFTISRDNAKNNVYLQMNSLKPEDTAVYYCAAGGYPGTTYYGYDYWGQGTQVTVSS | low polyreactivity |
| QVQLVESGGGLVQAGGSLRLSCAASGRIFPYMGWYRQAPGKERELVAAINASGGRTYYADSVKGRFTISRDNAKNTVYLQMNSLKPEDTAVYYCNAVWSSDTYTHPQYDYWGQGTQVTVSS | high polyreactivity |
| QVQLVESGGGLVQAGGSLRLSCAASGRIFPYNAMGWYRQAPGKERELVATNTSGRSTYYADSVKGRFTISRDNAKNTVDVPLNSLKPEDTAVYYCAARYPSIYYYRYDYWGQGTQVTVSS | high polyreactivity |
| QVQLVESGGGLVQAGGSLRLSCAASGRIFPYYAKGWYRQAPGKERELVAAINSGGSTYYADSVKGRFTISRDNAQNTVYLQMNSLKPEDTAVYYCIADVLYEDGFFWDDYWGQGTQVTVSS | low polyreactivity |
| QVQLVESGGGLVQAGGSLRLSCAASGRIFPYYAMGWSRQAPGKVRELVAAISVSDVRTYYPDSVKGRFTISRDNAKNTVYLQMNSLKPEDTAVYYCAAYWYRSPQSGLDYWGQGTQVTVSS | low polyreactivity |
| QVQLVESGGGLVQAGGSLRLSCAASGRIFPYYAMGWYIQAPGKERELVAAIDGIGDTTYYADSVKGRFTISRDNAKNTVYLQMNSLKPEDTAVYYCNADGDAYYWGSYDEEDYWGQGTQVTVSS | low polyreactivity |
| QVQLVESGGGLVQAGGSLRLSCAASGRIFPYYAMGWYRQAPGKDRELVAAISWSGGRTYYADSVKGRFTISRDYAKNTVYLQMNSLKPDDNAVYFCAAGHSYRPYYYYGEYDYWGQGTQVTVSS | high polyreactivity |
| QVQLVESGGGLVQAGGSLRLSCAASGRIFPYYAMGWYRQAPGKDRELVAANSYRGPRTSYADSVKGRFTISRDNAKNTAYLQRNSLKPEDTAVYYCAAVSVSWRGGRSSYEYWGQGTQVTVSS | high polyreactivity |
| QVQLVESGGGLVQAGGSLRLSCAASGRIFPYYAMGWYRQAPGKERELVAGISYSGTSTYYADSVKGRFTISRDNAKNTVYLQMNSLKPEDTAVYYCATTSWRYGYDYWGQGTQVTVSS | high polyreactivity |
| QVQLVESGGGLVQAGGSLRLSCAASGRIFPYYAMGWYRQAPGKERELVATISSGGRTNYADSVKGRFTMSRDNAKNTVYVQMNSLKPEDTAVYYCAADYRTPTDVEYDYWGQGTQVTVSS | high polyreactivity |
| QVQLVESGGGLVQAGGSLRLSCAASGRIFPYYTLGWYTQAPGKERELVATITTGGSTNYADSVKGRFTLSRDNAENTVYLKMNSLKPEDTAVYYCNNDGVVEVRFTGRQEYDYWGQGTQVTVSS | low polyreactivity |
| QVQLVESGGGLVQAGGSLRLSCAASGRIFPYYTMGWYRQAPGKERELVAAISRRGSSTYYADSVKGRFTISRDNAQNTVYLQMNSLKPEDTAVYNCAADRGGYTRTGEYDYWGQGTQVTVSS | high polyreactivity |
| QVQLVESGGGLVQAGGSLRLSCAASGRIFPYYVMGWYRQAPGKERELVAAISRSGSSTYYADSVKGRFTISRDNAKNTVSLQMNSLKPEDTAVYSCAADYNWSPYYTRGDYWGQGTQVTVSS | high polyreactivity |
| QVQLVESGGGLVQAGGSLRLSCAASGRIFPYYVMGWYRQAPGKERELVAAISRSGSSTYYADSVKGRFTITRDNAKNTVYLQMNSLKPEDTAVYYCAADYNWSPYYTRGDYWGQGTQVTVSS | high polyreactivity |
| QVQLVESGGGLVQAGGSLRLSCAASGRIFQDYAMGWYRQAPGKERELVASIRWSSTSTYYADSVKGRFTISRDNAKNTVYLQMNSLKPEVSAVYYCAKRPFYLTYFRDDYWGQGTQVSVSS | low polyreactivity |

| Sequence | polyreactivity (PSR sort gate) |
| --- | --- |
| QVQLVESGGGLVQAGGSLRLSCAASGRIFQFNFMGWYRQAPGKERELVAAISGSGGSTYADSVKGRFTISRDNAKNTVYLQMNSLKPEDTAVYYCATEYVVYRPRGRLQKFDYWGQGTQVTVSS | low polyreactivity |
| QVQLVESGGGLVQAGGSLRLSCAASGRIFQGNAMGWYRQAPGKERELVAAITSSGSSTYYADSVKGRFTISRDNAKNTVYLQMNSLKPEDTAVYYCAARATGPIMYYWGQGTQVTVSS | high polyreactivity |
| QVQLVESGGGLVQAGGSLRLSCAASGRIFQGYAMGWYRQAPGKERELDAAITVRGGTTYYADSVKGRFTISRDNAKNTVYLQMNRRKPEDTAVYYCNAAKLIHCYQYVYPASNSRYYYWGQGTQVTVSS | low polyreactivity |
| QVQLVESGGGLVQAGGSLRLSCAASGRIFQGYAMGWYRQAPGKERELVARITFRGARTYYADSVKGRFTISRDNAKITVYLHMNCLKPEDTAVYYFAKDAETYYWGSYKSLYDYWGQGTQVTVSS | low polyreactivity |
| QVQLVESGGGLVQAGGSLRLSCAASGRIFQGYAMGWYRQAPRKERELVASITVRGGTTYYADSVKGRFTISRDHAKNTVYLQMISLKPEDTAVYYCNAAKLIHGYQSVYPGSNSRYYYWGQGTQVTVSS | low polyreactivity |
| QVQLVESGGGLVQAGGSLRLSCAASGRIFQHNTMGWYRQAPGKEREFVAAIRRSGGSTYYADSVKGRFTISRDNAKNTVYLQMNSLKPEDTAVYYCAARDYPTGTRRWGGGDSWGQGTQVTVSS | low polyreactivity |
| QVQLVESGGGLVQAGGSLRLSCAASGRIFQKNAMGWYRQAPGKERELVAAISSGGSTNYADSVKGRFTISRDNAKNTVYLQMNSLKPEDTAVYYCAVESVYEYGGYVDSAYDYWGQGTQVTVSS | low polyreactivity |
| QVQLVESGGGLVQAGGSLRLSCAASGRIFQLYAMGWYRQRPGKERELVAAIRYSGDSTYYADSVKGRFTISRDNAKNTVYLQMNSLKPEDTAVYYCAAYWVYLSYYRYDYWGQGTQVTVSS | high polyreactivity |
| QVQLVESGGGLVQAGGSLRLSCAASGRIFQNYAMGWYRQATGKERELVAAIRRSSGRSYYADSVKGRFTISRDNAKNTVYLLMNSLKPEDTAVYYCNAVRGEEYDYWGQGTQVTVSS | high polyreactivity |
| QVQLVESGGGLVQAGGSLRLSCAASGRIFQPYTMGWYRQAPGKERELVAAITRSGGSTYYADSVKGRFTISRDNAKNTVYLQMNSLKPEDTAVYYCAADSRPYGKYDYWGQGTQVTVSS | high polyreactivity |
| QVQLVESGGGLVQAGGSLRLSCAASGRIFQRYAMGWYRQAPGKERELVATITRSGGSTYYADSVKGRFTISRDNAKNTVYLQMNSLKPEDTAVFYCSRQWYRYGMGYWGQGTQVSVSS | high polyreactivity |
| QVQLVESGGGLVQAGGSLRLSCAASGRIFQRYAMGWYSQAPGKERELVAAISSRGGRTFYADSVKGRFTISRDNAKNTVYLQMNSLKPEDTAAYYCAATATVGCVSFDYWGQGTQVTVSS | high polyreactivity |
| QVQLVESGGGLVQAGGSLRLSCAASGRIFQRYMGWYRQAPGKERELVAAISRRGGSTYYADSVKARFTISRDNAKNTVYLQMNSLKPEDTAVYYWNAVNVLAPSRGRRYDYWGQGTQVTVSS | high polyreactivity |
| QVQLVESGGGLVQAGGSLRLSCAASGRIFQSNAMGLYRQAPGKERELVAAISYSGGGSTYYADSVNGRFTISRDNAKNTVYLQMNSLKPEDTAVYYCAARRVGGCFYTWRNPAYEYWGQGTQVTVSS | high polyreactivity |
| QVQLVESGGGLVQAGGSLRLSCAASGRIFQSNVMGWYRQAPGKERELVAGISTSGGSTYYADSVKGRFTISRDYAKNTVYLQMNSLKPEDTAVYYCAKDPSAVKVPYGYPVIKKTYNSWGQGTQVTVSS | low polyreactivity |
